The values that follow come from paper PMC9896810, “Crk proteins activate the Rap1 guanine nucleotide exchange factor C3G by segregated adaptor-dependent and -independent mechanisms” (Cell Communication and Signaling : CCS, 2023).

For assay [1], the target named is T1, C3G (full-length, residues 4-1077) (human, UniProt Q13905-1 4-1077).
T1 construct: also called C3G WT; RapGEF1; source: E. coli BL21 (DE3), purified (IMAC, TEV digestion, reversed IMAC, SEC); not shown: His, N-terminal, cleaved; Halo, N-terminal, cleaved
T1 sequence (looked up): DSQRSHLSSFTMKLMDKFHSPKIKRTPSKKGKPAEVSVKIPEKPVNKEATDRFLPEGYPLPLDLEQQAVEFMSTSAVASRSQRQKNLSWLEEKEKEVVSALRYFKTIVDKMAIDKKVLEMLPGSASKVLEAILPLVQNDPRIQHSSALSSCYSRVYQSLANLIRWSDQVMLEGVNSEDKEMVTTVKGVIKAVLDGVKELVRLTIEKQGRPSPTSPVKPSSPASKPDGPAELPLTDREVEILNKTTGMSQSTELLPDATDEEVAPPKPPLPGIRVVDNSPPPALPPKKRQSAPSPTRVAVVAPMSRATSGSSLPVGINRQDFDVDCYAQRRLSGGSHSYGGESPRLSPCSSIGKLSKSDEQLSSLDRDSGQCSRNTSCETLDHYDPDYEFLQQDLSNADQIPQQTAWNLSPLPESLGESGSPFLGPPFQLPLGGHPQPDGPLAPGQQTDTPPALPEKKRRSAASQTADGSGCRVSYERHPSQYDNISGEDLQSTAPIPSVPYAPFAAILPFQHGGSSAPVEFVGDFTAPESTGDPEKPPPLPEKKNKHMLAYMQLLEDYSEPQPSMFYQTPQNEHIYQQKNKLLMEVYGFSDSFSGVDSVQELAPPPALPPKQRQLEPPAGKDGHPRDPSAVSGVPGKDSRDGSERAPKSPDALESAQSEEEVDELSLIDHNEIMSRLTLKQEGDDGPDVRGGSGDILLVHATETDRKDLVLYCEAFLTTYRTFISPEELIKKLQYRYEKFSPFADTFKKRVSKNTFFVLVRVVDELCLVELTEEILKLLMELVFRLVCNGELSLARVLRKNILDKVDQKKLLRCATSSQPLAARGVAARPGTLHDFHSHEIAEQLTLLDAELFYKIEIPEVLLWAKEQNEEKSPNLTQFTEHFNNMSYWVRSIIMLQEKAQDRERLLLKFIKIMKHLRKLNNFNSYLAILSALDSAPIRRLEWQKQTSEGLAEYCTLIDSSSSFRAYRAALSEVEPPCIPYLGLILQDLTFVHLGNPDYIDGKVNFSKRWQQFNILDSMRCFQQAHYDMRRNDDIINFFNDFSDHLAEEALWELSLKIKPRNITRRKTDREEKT
The experiment in a line: ITC; C3G or pC3G in the cell titrated with the Crk protein, 25 °C, 300 mM NaCl, pH 7.5; global fit of three titrations with SEDPHAT, three symmetric binding sites, microscopic kd. Conditions: both partners purified.

The target of assay [2] is T2, C3G full-length wild type (human, isoform a, residues 4-1077) (human, UniProt Q13905-1 4-1077).
T2 sequence (looked up): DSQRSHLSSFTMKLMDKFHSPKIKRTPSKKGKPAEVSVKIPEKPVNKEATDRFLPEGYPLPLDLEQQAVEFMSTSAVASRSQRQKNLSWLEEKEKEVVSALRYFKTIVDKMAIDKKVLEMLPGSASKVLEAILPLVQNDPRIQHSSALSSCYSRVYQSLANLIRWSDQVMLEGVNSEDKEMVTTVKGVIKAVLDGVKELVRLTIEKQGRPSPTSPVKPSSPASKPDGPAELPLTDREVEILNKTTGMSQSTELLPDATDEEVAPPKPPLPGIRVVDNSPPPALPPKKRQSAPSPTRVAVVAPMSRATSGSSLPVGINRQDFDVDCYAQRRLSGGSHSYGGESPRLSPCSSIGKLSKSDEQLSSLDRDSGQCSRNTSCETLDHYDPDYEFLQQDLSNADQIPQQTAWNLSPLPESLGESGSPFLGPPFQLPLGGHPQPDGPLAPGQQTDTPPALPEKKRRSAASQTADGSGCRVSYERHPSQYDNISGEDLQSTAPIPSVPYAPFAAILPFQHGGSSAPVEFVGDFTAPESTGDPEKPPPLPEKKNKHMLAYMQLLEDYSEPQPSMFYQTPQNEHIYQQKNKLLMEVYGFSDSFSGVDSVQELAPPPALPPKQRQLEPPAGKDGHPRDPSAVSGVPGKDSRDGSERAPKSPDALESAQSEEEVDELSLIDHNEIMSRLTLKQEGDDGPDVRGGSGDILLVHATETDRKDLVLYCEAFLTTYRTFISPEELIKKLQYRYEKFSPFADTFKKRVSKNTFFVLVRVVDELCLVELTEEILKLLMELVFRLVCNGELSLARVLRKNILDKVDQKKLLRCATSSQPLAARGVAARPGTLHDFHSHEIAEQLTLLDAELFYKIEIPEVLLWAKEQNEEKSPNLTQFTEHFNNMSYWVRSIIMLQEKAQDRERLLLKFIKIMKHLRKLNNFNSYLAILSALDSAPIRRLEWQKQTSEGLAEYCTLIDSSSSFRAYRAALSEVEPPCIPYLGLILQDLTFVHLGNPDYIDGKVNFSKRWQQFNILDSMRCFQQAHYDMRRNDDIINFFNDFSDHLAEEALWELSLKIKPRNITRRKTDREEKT
Description: cell-based or functional assay.

For assay [3], the target named is T3, Src-phosphorylated C3G (pC3G), wild type (human, UniProt Q13905-1 4-1077, phosphotyrosines (phosphorylated in vitro by Src; sites not stated)).
T3 sequence (looked up): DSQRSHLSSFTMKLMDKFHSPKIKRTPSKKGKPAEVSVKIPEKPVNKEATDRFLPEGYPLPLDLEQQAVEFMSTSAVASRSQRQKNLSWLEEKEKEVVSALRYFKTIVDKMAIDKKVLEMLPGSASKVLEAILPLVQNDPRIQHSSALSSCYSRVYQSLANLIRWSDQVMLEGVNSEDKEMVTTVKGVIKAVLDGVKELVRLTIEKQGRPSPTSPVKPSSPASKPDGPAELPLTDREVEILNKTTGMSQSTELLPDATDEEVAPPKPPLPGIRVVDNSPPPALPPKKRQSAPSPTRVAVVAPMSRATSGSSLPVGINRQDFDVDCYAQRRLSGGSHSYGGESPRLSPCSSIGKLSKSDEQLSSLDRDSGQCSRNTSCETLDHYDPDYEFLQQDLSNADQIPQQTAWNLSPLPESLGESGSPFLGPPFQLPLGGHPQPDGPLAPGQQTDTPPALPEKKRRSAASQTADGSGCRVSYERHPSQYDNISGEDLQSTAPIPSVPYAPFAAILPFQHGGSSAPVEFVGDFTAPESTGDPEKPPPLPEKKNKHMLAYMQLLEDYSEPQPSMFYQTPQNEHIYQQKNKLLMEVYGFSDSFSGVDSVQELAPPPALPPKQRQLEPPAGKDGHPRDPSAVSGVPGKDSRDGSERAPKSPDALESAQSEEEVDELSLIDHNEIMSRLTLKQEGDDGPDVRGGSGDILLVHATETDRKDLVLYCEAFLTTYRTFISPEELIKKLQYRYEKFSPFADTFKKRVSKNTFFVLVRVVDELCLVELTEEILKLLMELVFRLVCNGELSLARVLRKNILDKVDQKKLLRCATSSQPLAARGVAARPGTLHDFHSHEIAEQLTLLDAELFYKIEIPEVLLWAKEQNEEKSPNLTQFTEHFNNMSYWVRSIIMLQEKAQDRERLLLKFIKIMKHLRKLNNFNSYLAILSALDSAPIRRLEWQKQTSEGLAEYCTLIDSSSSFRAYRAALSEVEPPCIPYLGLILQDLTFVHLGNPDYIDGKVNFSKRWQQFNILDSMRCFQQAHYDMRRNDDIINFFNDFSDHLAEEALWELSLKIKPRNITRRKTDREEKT
The experiment in a line: cell-based or functional assay.

Assay [4] concerns the target T4, CrkL, full-length (human) (human, UniProt P46109 1-303).
T4 construct: Monomer by sedimentation velocity and DLS (theoretical mass 33.7 kDa); Purification 'in a similar manner' as C3G would include TEV cleavage of the tag; also called Crk-like protein; wild type CrkL; source: E. coli BL21 (DE3), purified (His-tagged, purified in a similar manner as C3G)
Description: ITC; single-PRM mutants of C3G in the cell titrated with full-length CrkL or CrkL-SH3N; 25 °C; 1:1 model in SEDPHAT; N is the competent fraction of C3G. Conditions: both partners purified.

B1: CrkII (full-length) (natural protein, human, UniProt P46108-1 1-304, looked up)
chain: MAGNFDSEERSSWYWGRLSRQEAVALLQGQRHGVFLVRDSSTSPGDYVLSVSENSRVSHYIINSSGPRPPVPPSPAQPPPGVSPSRLRIGDQEFDSLPALLEFYKIHYLDTTTLIEPVSRSRQGSGVILRQEEAEYVRALFDFNGNDEEDLPFKKGDILRIRDKPEEQWWNAEDSEGKRGMIPVPYVEKYRPASASVSALIGGNQEGSHPQPLGGPEPGPYAQPSVNTPLPNLQNGPIYARVIQKRVPNAYDKTALALEVGELVKVTKINVSGQWEGECNGKRGHFPFTHVRLLDQQNPDEDFS
notes: human CrkII, residues 1-304, in pETEV15b; source: E. coli BL21 (DE3), purified (IMAC, TEV digestion, SEC); not shown: His, N-terminal, cleaved
In assay [1], B1 gave a Kd of 2700 nM.

B2: CrkII (human) (natural protein, UniProt P46108-1 1-304, looked up)
chain: MAGNFDSEERSSWYWGRLSRQEAVALLQGQRHGVFLVRDSSTSPGDYVLSVSENSRVSHYIINSSGPRPPVPPSPAQPPPGVSPSRLRIGDQEFDSLPALLEFYKIHYLDTTTLIEPVSRSRQGSGVILRQEEAEYVRALFDFNGNDEEDLPFKKGDILRIRDKPEEQWWNAEDSEGKRGMIPVPYVEKYRPASASVSALIGGNQEGSHPQPLGGPEPGPYAQPSVNTPLPNLQNGPIYARVIQKRVPNAYDKTALALEVGELVKVTKINVSGQWEGECNGKRGHFPFTHVRLLDQQNPDEDFS
Take B2: in assay [2], the “AC50 of the dose-response activation of the GEF activity of C3G (1 µM) on Rap1b:mant-dGDP” value amounted to 65700 nM and the “kmax of the dose-response activation of the GEF activity of C3G (1 µM) on Rap1b:mant-dGDP” value amounted to 7200 M⁻¹ s⁻¹. In addition, in assay [3], the “AC50 of the dose-response activation of the GEF activity of pC3G (0.2 µM) on Rap1b:mant-dGDP” value was 2.6 µM and the “kmax of the dose-response activation of the GEF activity of pC3G (0.2 µM) on Rap1b:mant-dGDP” value came to 0.0223 s^-1 µM^-1.

B3: CrkL-SH2-SH3N (domain or fragment, human, UniProt P46109 1-182, looked up)
chain: MSSARFDSSDRSAWYMGPVSRQEAQTRLQGQRHGMFLVRDSSTCPGDYVLSVSENSRVSHYIINSLPNRRFKIGDQEFDHLPALLEFYKIHYLDTTTLIEPAPRYPSPPMGSVSAPNLPTAEDNLEYVRTLYDFPGNDAEDLPFKKGEILVIIEKPEEQWWSARNKDGRVGMIPVPYVEKLV
notes: human CrkL, SH2-SH3N, residues 1-182, in pETEV15b; also called CrkL-SH2N-SH3N; source: E. coli BL21 (DE3), purified (IMAC, TEV digestion, SEC); not shown: His, N-terminal, cleaved
As to B3, in assay [1], the affinity, expressed as Kd, was 2200 nM.

B4: CrkL-SH2-SH3N (residues 1-182) (domain or fragment, human, UniProt P46109 1-182, looked up)
chain: MSSARFDSSDRSAWYMGPVSRQEAQTRLQGQRHGMFLVRDSSTCPGDYVLSVSENSRVSHYIINSLPNRRFKIGDQEFDHLPALLEFYKIHYLDTTTLIEPAPRYPSPPMGSVSAPNLPTAEDNLEYVRTLYDFPGNDAEDLPFKKGEILVIIEKPEEQWWSARNKDGRVGMIPVPYVEKLV
As for B4, in assay [2], the “AC50 of the dose-response activation of the GEF activity of C3G (1 µM) on Rap1b:mant-dGDP” value came out at 15800 nM and the “kmax of the dose-response activation of the GEF activity of C3G (1 µM) on Rap1b:mant-dGDP” value amounted to 8400 M⁻¹ s⁻¹. In addition, in assay [3], the “AC50 of the dose-response activation of the GEF activity of pC3G (0.2 µM) on Rap1b:mant-dGDP” value was 4.9 µM and the “kmax of the dose-response activation of the GEF activity of pC3G (0.2 µM) on Rap1b:mant-dGDP” value amounted to 0.0377 s^-1 µM^-1.

B5: C3G-PAAA (natural protein)
chain: DSQRSHLSSFTMKLMDKFHSPKIKRTPSKKGKPAEVSVKIPEKPVNKEATDRFLPEGYPLPLDLEQQAVEFMSTSAVASRSQRQKNLSWLEEKEKEVVSALRYFKTIVDKMAIDKKVLEMLPGSASKVLEAILPLVQNDPRIQHSSALSSCYSRVYQSLANLIRWSDQVMLEGVNSEDKEMVTTVKGVIKAVLDGVKELVRLTIEKQGRPSPTSPVKPSSPASKPDGPAELPLTDREVEILNKTTGMSQSTELLPDATDEEVAPPKPPLPGIRVVDNSPPPALPPKKRQSAPSPTRVAVVAPMSRATSGSSLPVGINRQDFDVDCYAQRRLSGGSHSYGGESPRLSPCSSIGKLSKSDEQLSSLDRDSGQCSRNTSCETLDHYDPDYEFLQQDLSNADQIPQQTAWNLSPLPESLGESGSPFLGPPFQLPLGGHPQPDGPLAPGQQTDTAAAAAEAKRRSAASQTADGSGCRVSYERHPSQYDNISGEDLQSTAPIPSVPYAPFAAILPFQHGGSSAPVEFVGDFTAPESTGDPEKAAPAAEAKNKHMLAYMQLLEDYSEPQPSMFYQTPQNEHIYQQKNKLLMEVYGFSDSFSGVDSVQELAPAAAAAPAQRQLEPPAGKDGHPRDPSAVSGVPGKDSRDGSERAPKSPDALESAQSEEEVDELSLIDHNEIMSRLTLKQEGDDGPDVRGGSGDILLVHATETDRKDLVLYCEAFLTTYRTFISPEELIKKLQYRYEKFSPFADTFKKRVSKNTFFVLVRVVDELCLVELTEEILKLLMELVFRLVCNGELSLARVLRKNILDKVDQKKLLRCATSSQPLAARGVAARPGTLHDFHSHEIAEQLTLLDAELFYKIEIPEVLLWAKEQNEEKSPNLTQFTEHFNNMSYWVRSIIMLQEKAQDRERLLLKFIKIMKHLRKLNNFNSYLAILSALDSAPIRRLEWQKQTSEGLAEYCTLIDSSSSFRAYRAALSEVEPPCIPYLGLILQDLTFVHLGNPDYIDGKVNFSKRWQQFNILDSMRCFQQAHYDMRRNDDIINFFNDFSDHLAEEALWELSLKIKPRNITRRKTDREEKT
As to B5, the Kd in assay [4] was about 1000 nM.
